# Measured values from paper PMC11685794 (Nature Communications, 2024).
# B1: CD163 SRCR 1-5 (residues 42-578) (domain or fragment)
# chain: SSLGGTDKELRLVDGENKCSGRVEVKVQEEWGTVCNNGWSMEAVSVICNQLGCPTAIKAPGWANSSAGSGRIWMDHVSCRGNESALWDCKHDGWGKHSNCTHQQDAGVTCSDGSNLEMRLTRGGNMCSGRIEIKFQGRWGTVCDDNFNIDHASVICRQLECGSAVSFSGSSNFGEGSGPIWFDDLICNGNESALWNCKHQGWGKHNCDHAEDAGVICSKGADLSLRLVDGVTECSGRLEVRFQGEWGTICDDGWDSYDAAVACKQLGCPTAVTAIGRVNASKGFGHIWLDSVSCQGHEPAIWQCKHHEWGKHYCNHNEDAGVTCSDGSDLELRLRGGGSRCAGTVEVEIQRLLGKVCDRGWGLKEADVVCRQLGCGSALKTSYQVYSKIQATNTWLFLSSCNGNETSLWDCKNWQWGGLTCDHYEEAKITCSAHREPRLVGGDIPCSGRVEVKHGDTWGSICDSDFSLEAASVLCRELQCGTVVSILGGAHFGEGNGQIWAEEFQCEGHESHLSLCPVAPRPEGTCSHSRDVGVVCS
# How the values were obtained:
# [1] = molecular target: haptoglobin-hemoglobin complex, Hp(1-1)Hb (αβHb bound to dimeric Hp1-1) (human, UniProt P00738-2;P00738;P69905;P68871); experiment: SPR
# [2] = molecular target: B1; experiment: SPR
Kd [1],Kd [2],Binder
0.766 µM,–,B1
–,43.8 µM,hemoglobin (Hb) (complex) chain 1: not shown chain 2: not shown
